Results taken from article PMC7747622.

Columns and labels:
[1] = tested on: M-Ig of patient (monoclonal IgG kappa) (human (patient)); test: SPR; conditions: 2 mM Mg2+; aptamer immobilized; scrambled channel subtracted; SPR: PBS, 2 mM MgCl2 (SB), 6.25-200 nM IgG, 20 ul/min, 1:1 model; ELONA: SuperBlock or ChonBlock, 0.05% Tween 20, 2 mM MgCl2, washes PBS/2 mM MgCl2/0.05% Tween …
[2] = tested on: daratumumab (anti-CD38 therapeutic mAb, IgG kappa); test: SPR; conditions: SPR: PBS, 2 mM MgCl2 (SB), 6.25-200 nM IgG, 20 ul/min, 1:1 model; ELONA: SuperBlock or ChonBlock, 0.05% Tween 20, 2 mM MgCl2, washes PBS/2 mM MgCl2/0.05% Tween …

Sequence | Kd [1] | Kd [2]
GGAGGCTCTCGGGACGACGAGTGTGTCAGGTGGATGGACGGTTGGGTTGGGTAGGCAAGGATCGCTGCTGACCAGTTGAG [aptC] | 1.85 nM | –
GGAGGCTCTCGGGACGACGGCGCGGCGATTTGGGGTATGGGGAGGGGGTGGGTTGGGTCCATCGCTGCTGACCAGTTGAG [aptD] | – | 2.67 nM
